# Measurements as given in the DeepSol protein solubility set.
# Assay: soluble on expression in E. coli; label from the status in PepcDB or PDB records
row,Sequence,soluble on expression in E. coli
1,MGSDKIHHHHHHMKKSERLNQELFFLRTHPQFNLNQLMKTFGISKSTALRDIEALENLGVPLYVENGRYGGYRVLNKPLLPPIYFNENEVLAIFFSLQLLKLVAESPFGHSYQQIKQKLLHSLDEPTQFKISQMSKVVYYEGIEQVEAPGNLEQLFHCILAQQVIQFNYTRYEATTKKILPTRLTILEGYWYCSGYDVTKKAWRTYRCDFMEAIQQLNQTLDFTTEELKESYRHQQTTARTIPFKAIITEKGKEFFYKHRFDNIQLEETPTQCFLVGQIHPTETQFLANYFMGFGEEVTILDPVQVKQAYVESIMRIQKKYQE,not soluble
2,IVGGYTCQENSVPYQVSLNSGYHFCGGSLINDQWVVSAAHCYKSRIQVRLGEHNINVLEGDEQFVNAAKIIKHPNFDRKTLNNNIMLIKLSSPVKLNARVATVALPSSCAPAGTQCLISGWGNTLSSGVNEPDLLQCLDAPLLPQADCEASYPGKITDNMVCVGFLEGGKDSCQGDSGGPVVCNGELQGIVSWGYGCALPDNPGVYTKVCNYVDWIQDTIAAN,soluble
3,MGHHHHHHSHLKDNRVVTMEVEARNLDKKDFLGKSDPFLEFFRQGDGKWHLVYRSEVIKNNLNPTWKRFSVPVQHFCGGNPSTPIQVQCSDYDSDGSHDLIGTFHTSLAQLQAVP,not soluble
4,MGSDKIHHHHHHMKKNQKISVEQLEVGTFIRLPISWKDHPFLFSSFKIKDAAQIELIKGLGLKDVFFDPEKSDVEPVTSENASTQKPDEQALNALKEQMISQKSAKIDEQQKLKRDLKKTEQQFNRSVSMMRSMVSKISSRPLNAVSEAKDLISNMTTMLLNSDNLALHLMGDAKNDEHIYHHSLNVAMLCMLMAKELGWSREEVETIGIGGLFHDIGKLKVPSNILNKRVPLTTPEENFIKQHPLMSINFLKLADSFPDEAKPLIANHHEYLDGSGYPQGLKADKLDKLSQLIAVVNEYDNLCNGTNQAKGKPPSIALGLLYKNYKNKLNVEYISKLIKMLGIYPPGSIIELSSGQFAMVMSVNLQKLLCPNIVVYDQLVPKDLAPIISLQDEGLSIVRSLPAAALPEKIHKYLNPREQISLGIGQN,not soluble
5,MTQVIIDGDACPVTNSIIELTKGTGIFVTVVRSFSHFSTVIQPEHVNIIYVDDGPDAVDYRIVKLVHSDDLVVTQDYGLASLLLNKAKIVMHHKGFIYNQENINTLLEQRHASAQFRKSGLEHHHHHH,not soluble
6,MGSDKIHHHHHHMMSAVADIQECRDFLAAHPQVKFVEVFFTSMTGVPRGKRLRVHELEAIYEYGRFLPGSVLVVDTNGADCEDTGLVWEDGDADRRARPVPGTLTLAPWLGPDVAQVMLSLYELDGTPNDLDPRHVLQRVLDRYAADGLTPVAACELEYYLVDLQRGPNGELLPAKSLQTGLRPTGIQVYGLPELEAHAPFLRELWDVADTLGVPLEGAISEFAPAQVELTLKHKPDALRAADDAVLYKRAAKGVALRHGMEATFMAKPWSDRAGNGFHVHLSVNDAAGNNLCASEDIEGSDLLKHAIGGMKVLLGEGMAILAPNANSYRRFKANSYAPVAPTWGVNNRTVSLRVPAGPPKTRHVEHRVAGADGNPYLVLAVLLASAHHGITNKIDPGPAVIGDGYAAAAKENIRLPNNWFAAVDLFEQSSVLRDYLGDRFVDMFVSVKRTEQARFFEVVTELDFDWYLRNA,not soluble
7,MREVISIHVGQAGVQIGNACWELYCLEHGILPDGTSMEPDGNSGSLGTFFSDTGYGRHVPRSIFVDLEPTVVDEIRTGAYKKLFHPEQMLTGKEDAANNYARGHYTVGKEIIDTTLDRIRRLANNCEGLQGFFVFHSFGGGTGSGFTSMLMERLSAEYGKKSKLEFSIYPAPQISTSVVEPYNSILTTHTTLEHSDCSFMVDNEAIYDICRRNLRVSRPTYNNLNRIISQVVSSITASLRFDGALNVDLNEFQTNLVPYPRIHFPLVAYNPLISSAHHEFLSVDEITKSCFEASNQMVKCDPKHGKYMAVCLLYRGDVVPKDVSAAIKSIKTQRSVQFVDWCPTGFKVGLNYQPPTVIPGGDMAKVPRAVCMLSNTTAIAEAWQRLDYKFDLMYAKRAFVHWYVGEGMEEGEFSEAREDLAALEKDYEEVGADSDANDNGDDEY,not soluble
8,AMARVGVLGAKGKVGATMVRAVAAADDLTLSAELDAGDPLSLLTDGNTEVVIDFTHPDVVMGNLEFLIDNGIHAVVGTTGFTAERFQQVESWLVAKPNTSVLIAPNFAIGAVLSMHFAKQAARFFDSAEVIELHHPHKADAPSGTAARTAKLIAEARKGLPPNPDATSTSLPGARGADVDGIPVHAVRLAGLVAHQEVLFGTEGETLTIRHDSLDRTSFVPGVLLAVRRIAERPGLTVGLEPLLDLH,soluble
9,MAETDPKTVQDLTSVVQTLLQQMQDKFQTMSDQIIGRIDDMSSRIDDLEKNIADLMTQAGVEELESENKIPATQKS,not soluble
10,MQVSRFLTSFHRLSTALPASTEKYYFETVKHDNRNEVVDFLNNNFRVEEPLSKAAGMTESDIQSCFDGVFERVLKNEVSILARSKQSDEIVGCMLNSVWKRNDPKKNEDEAEDFEFGGDRKGVMTIGEILNELHESFWKLRPDQHTVLHFEISSVNKNHQRQGLASKFMNWTEKKELLKVIEASSIVAEASSLANQILLSKRGYETVASTLLSSRIDVNGKQILVCDDGTDRVDLVFKELN,not soluble
11,SEEYHRHCDEVGFNAEEAHNIVKECVDGVLGGEDYNHNNINQWTASIVEQSLTHLVKLGKAYKYIVTCAVVQKSAYGFHTASSCFWDTTSDGTCTVRWENRTMNCIVNVFAIAIVL,soluble
12,MGHHHHHHSHMIVNVIGAGLAGSEVAYNLGKRGIRVRLFEMRPKKMTEVHKTGYFAELVCSNSLKSEDITNAEGLLKAEMRLMGSITLEAAEKARVPSGKALAVDRNIFAKEVTEVIERLESVEIIREEVTEFDPEEGIWVVATGPATSDGLLPFLKKLLGDDLLFFFDAVSPIVTFESIDMECAFWGDRFGKGKDYINCPLTKEEYEEFWKALVEAEVIEMEDFDRKLLFERCQPIEEIARSGKDALRYGPLRPTGLVDPRTGKEPYAVVQLRREDKEGRFYSLVGFQTRLKWSEQKRVLRKIPCLRNAEIVRYGVMHRNVYINSPKLLDIFFRLKKHPNIFFAGQITGVEGYMESAASGIYVAYNVHRILKGLSPLKLPEETMMGALFSYIIEKVEGDLKPMYANFGLLPPLKVRVKDKFEKRKKLAERAIETMKKFLEENPW,soluble
13,GAKLNRKLRQDSTDRYKTKLYLWRNLGGLIPEDMAISVTESITADWKQYNDMMSKVRNETLDILKTNKVATEDYIGYIAFAEELAHQVWKNKNSSPDPNTANEASKTDLESKYSDVYGLDVTVLDAIYNAVIPIIMGGGS,soluble
14,MSLHKKDIIRLLETIAVYMELKGDNPFKVSAFRKAAAALEQDDRSLSEMDDMMSLSGIGKGTYSVIKEYIDEGKSSTLESLQKEVPEGLVPLLKLPGLGGKKIAKLYKELGVHDAESLKEACEQQKVQGLAGFGKKSEEKILQALGEAGKQPERFPIGYALRIAREIEEHLSQFTHIIKFSRAGSLRRARETVKDLDYIIATDHPAEVREQLLELPNIKSVIASGDTKVSVILSFEYETSVDFRLVTEEQFPTTLHHFTGSKDHNIKMRQIAKERGERISEYGVETVETGEIKTFPSEREFYAHFGLPLIPPEIRESEGHHHHHH,soluble
15,MVAVKGLSEREVVADTVIWPIQFTVADNQLSSLFATVDQQTQLITQFLVEKGVDRAAISLSAPAVIDKKAQQYGEDRAEFRYLATQTLTVYSKQVDQVRKIISEIGQLGKQGVVFNQDPYNNRVEFSFTGLNAIKPDMIEEATKQAREVAQKFAKDSQSTLGKIKTASQGQFSITDRDNNTPYIKNVRVVTTVEYYLSDLEHHHHHH,not soluble
16,SRGMTPGSRLIDYQLIDSTEELAAILGCGHPSSIHKITRVRLANDIPMAIESSHIPFELAGELNESHFQSSIYDHIERYNSIPISRAKQELEPSAATTEEANILGIQKGAPVLLIKRTTYLQNGTAFEHAKSVYRGDRYTFVHYMDRLS,not soluble
17,MSLMRDITPDLCDKYESQVTLLNLPLQNFGQRSAFWGEIVTVRCYHDNSKVRDVLSQNGKGKVLVVDGHGSCHKALMGDQLAILAIKNDWEGVIIYGAVRDVVAMSEMDLGIKALGTSPFKTEKRGAGQVNVTLTMQNQIVEPGDYLYADWNGILMSETALDVAEGGSHHHHHH,soluble
18,MAHHHHHHMLRIGICHFSRQEPQVIGTSVPSFRHFPYRAQDVLHLYRDFLRLIHQHPPQERADLLFRLHNEFYRRRHLTSPKMITGAIKRGEGILNVQRSMLESKTLRARGVSSREQGAQNVDGLWDQLQMLSGHVLPGLRNFRPSRNVLKGSYTQQATTQAVYSRRRL,not soluble
19,MGSDKIHHHHHHMKQVSIIGAGIGGLTAAVRLQKLGYNVTIYEQNAQPGGKMNQIVSQGFTFDVGPTIVMMKDIYEEVFRFCGVDPHNYLPFEEVQPLMHLVFGDQSSLDLSRDLPTLIAEINRIAPDDVNGMLNFLADIYHRYTIAKPNFLERSFRNWRDFYNLPALYAGLQLRTFNNAYKNIAKFIKNENLRNSLAFQTLYIGISPYQGPSLYNIIPMIELFYGVYFLKGGMYTVVNSLVKLFKEQGGTLKLATPVQEIIIKDKVAVGIRVNNHPIHSDYVLCNADFPTAMTTLIPNEQDRGQYTDQKIAKMDYSCSCLVLYLGLDKKYPTEALHTIHFAQDFSKNVADLFDNGKLPEDPSYYVYVPSKMDPSLAPENSEALYVLVPVPELSKFNDWSPTTLKNYRQLIINKLRQTATFSDIEQHIVVEKQFTPVDFKEQFGAYNGATFGLRPTLKQSNYYRPHNKFDYADHLYFCGSSTHPGAGVPIVMQSAKLAVEELIKDDQTNA,not soluble
20,MIRMAQNNKELEKLAYEYQVLQAQAQILAQNLELLNLAKAEVQTVRETLENLKKIEEEKPEILVPIGAGSFLKGVIVDKNNAIVSVGSGYAVERSIDEAISFLEKRLKEYDEAIKKTQGALAELEKRIGEVARKAQEVQQKQSMTSFKVKK,soluble
21,MGSDKIHHHHHHMEDFWRIRATDTAWKGVLHLASPRRYSRGEVIIRAGEMVDSLFYLESGEVRMIRTSMEGSEKILMYIEEGTLFGETPFFTGQPILSTFVCSRPAVIWRFSRHSVYADLLPNHPEIVSSLLHTFAAKVSTLSNQSASLGLQNVAERLCTFLYVTSGESISGAHGAELKLSMKMRDIANLLGVHRTTLYKAIRDLEKEGVLENFTRDSVRIADVTRFLEMVHK,not soluble
22,MLIKIAPSILSADFSKLGEEVLRIEKAGADLVHIDVMDGHFVPNITIGPPVVKSLKKVSKLPFDVHLMIENPDMYIESFADAGADIISVHAEACRHLHRTIQKIKQLGIKAAVALNPATPLCAVEWVMEDVDMILLMTVNPGFGGQKYINGVTRKIEELERIVESRGLNIDIEVDGGIDTETVQYVTKAGANVIVSGSTIFAAEDTAKIIQELRMNSYRK,not soluble
23,GGPTIMVALANPRTESALITLASALAQHEDGRVLATHIATVPDQTALETAAANRDRIDATSESLLDTAKADAEAFDVPIETKTILSHRGIEEVFDAARTNHADTVVMGYGGTQFAGGRAEGTLDELAHDLPCDFLVLDGQDL,not soluble
24,MGSDKIHHHHHHMSEQELSQLSGGMDDAAPCPWLKVEVHPAGDRQVVVAYGDIDVDTEAILQRALREALDHSVSGVNLDLGAVGFCDCAGLNVLLRMRRHALAHGKTLAVQATGPATGKLLTITGTLSLFDVTAGPGTRAKGRNPLPPEPHDPSRVDHIDGTGRGRDGTDLETDGTIDGTVVDLRIEVGQLRRAMQTRPVIDLARGVLMASFGLSAEDAWTVLVTVSQHTNTKLHQIAEDLVNTVQGAPLPEPLQRQLAEAVMPFSRVRNAGA,not soluble
